Key:
[1] = target: JIP3^LZ (leucine zipper domain of murine JIP3 isoform A, residues 417-487) (murine); assay: SEC-MALS; JIP3^LZ on a WTC-030S5 column; 25 mM HEPES pH 7.5, 0.1 M NaCl, 1 mM TCEP; 1 ml/min
[2] = target: GST3C-JIP3^LZ (murine); assay: ITC; KLC2^TPR as titrant, GST3C-JIP3^LZ in the cell; 25°C; 0.5 M NaCl, 25 mM HEPES, 5 mM MgCl2, 1 mM TCEP, pH 7.5; four experiments globally fitted with a two-stage sequential model (A + B + B → AB + B → ABB); macroscopic association constants

Sequence of KLC2^TPR (murine kinesin light chain 2 TPR domain, residues 191-480) (O88448 190-479): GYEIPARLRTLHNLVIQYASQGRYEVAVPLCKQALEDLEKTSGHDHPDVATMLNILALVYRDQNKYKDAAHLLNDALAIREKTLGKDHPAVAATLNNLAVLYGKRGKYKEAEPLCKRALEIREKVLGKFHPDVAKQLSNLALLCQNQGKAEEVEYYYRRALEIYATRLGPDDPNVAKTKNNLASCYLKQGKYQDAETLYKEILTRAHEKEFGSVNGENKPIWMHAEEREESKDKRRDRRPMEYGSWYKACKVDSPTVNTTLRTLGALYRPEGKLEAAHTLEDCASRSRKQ

Substance | stoichiometry N [1] | K (macroscopic association constant), stage A + B + B → BA + B [2] [µM⁻¹] | K (macroscopic association constant), stage BA + B → BAB [2] [µM⁻¹] | dH, stage A + B + B → BA + B [2] [kcal/mol] | dH, stage BA + B → BAB [2] [kcal/mol]
JIP3^LZ (leucine zipper domain of murine JIP3 isoform A, residues 417-487) (domain or fragment) | 2 | – | – | – | –
KLC2^TPR (murine kinesin light chain 2 TPR domain, residues 191-480) (from UniProt O88448 190-479) (domain or fragment) | – | 0.132 | 0.132 | -18.8 | 0.952

— paper PMC6224480, “Insights into Kinesin-1 Activation from the Crystal Structure of KLC2 Bound to JIP3” (Structure(London, England:1993), 2018)
